This note sets out measurements from patent US20150239980A1 (NEOTOPE BOSCIENCES, published 2015).

For the test, the target named is T1, recombinant human laminin 511 (Biolamina) (human, UniProt O15230 36-3695; P07942 22-1786; P11047 34-1609).
T1 construct: negative control; also called laminin 10 (α5β1γ1)
Nature of the test: flow cytometry, mouse MCAM CHO cells, pan-laminin antibody. In general terms: Flow cytometry measures light scatter and fluorescence of single cells or particles in a stream.

B1: mouse MCAM expressed on transfected CHO cells (receptor, UniProt Q8R2Y2 24-648, looked up)
chain: VPGEEKQPVPTPDLVEAEVGSTALLKCGPSRASGNFSQVDWFLIHKERQILIFRVHQGKGQREPGEYEHRLSLQDSVATLALSHVTPHDERMFLCKSKRPRLQDHYVELQVFKAPEEPTIQANVVGIHVDRQELREVATCVGRNGYPIPQVLWYKNSLPLQEEENRVHIQSSQIVESSGLYTLKSVLSARLVKEDKDAQFYCELSYRLPSGNHMKESKEVTVPVFYPAEKVWVEVEPVGLLKEGDHVTIRCLTDGNPQPHFTINKKDPSTGEMEEESTDENGLLSLEPAEKHHSGLYQCQSLDLETTITLSSDPLELLVNYVSDVQVNPTAPEVQEGESLTLTCEAESNQDLEFEWLRDKTGQLLGKGPVLQLNNVRREAGGRYLCMASVPRVPGLNRTQLVSVGIFGSPWMALKERKVWVQENAVLNLSCEASGHPQPTISWNVNGSATEWNPDPQTVVSTLNVLVTPELLETGAECTASNSLGSNTTTIVLKLVTLTTLIPDSSQTTGLSTLTVSPHTRANSTSTEKKLPQPESKGVVIVAVIVCTLVLAVLGAALYFFYKKGKLPCGRSGKQEITLPPTRKSEFVVEVKSDKLPEEMALLQGSNGDKRAPGDQGEKYIDLRH
notes: whole, on cells; also called murine MCAM
With B1, the binding result is “no binding (tested: 10 µg/ml)”.
